Measured values taken from patent US8993725B2, “Notch-based fusion proteins and uses thereof” (The Trustees of Columbia University in the City of New York, priority 2004, dated 2015).
Entries after “also recorded” stand apart in the source; their conditions may differ.

Legend:
[1] = tested on: Notch signaling (CBF1 promoter activity) in HUVEC; experiment: VEGF-induced Notch signaling, CBF1 promoter / CSL-luciferase reporter activity in HUVEC; assay type: cell-based, Human; conditions: for Inhibition of VEGF-induced CBF1 promoter activity: 40 MOI for each adenovirus; for Effect on VEGF-induced CBF1 promoter / CSL luciferase activity: co-infection (co-transduction) with Ad-VEGF in HUVEC
Protocol: To determine VEGF-induced Notch signaling, HUVEC which were infected with adenovirus were used. HUVEC plated 1-day prior in 6 well plates at 8.0×10^5 were infected with either Ad-LacZ as control or Ad-VEGF at indicated m.o.i. in the presence or absence of Ad-N1ECD/Fc. Two days after infection, infected HUVEC were re-seeded into 24-well plate at 1.5×10^5 cell in triplicate and cultured for 24 hours, and then transfected with 12.5 ng pRL-SV40 (Promega) and 137.5 ng pGA981-6 using Effectene transfection reagent (Qiagen). Cells were harvested either 1 or 2 days post-transfection and luciferase activity was determined by using the Dual-Luciferase® Reporter Assay System (Promega).
One can measure Notch signaling function by measuring transcriptional activity of CBF1 promoter, which is activated by binding of Notch-IC to CBF1. We measured CBF1 promoter activity in HUVEC which was infected with adenovirus encoding VECF-165 at different MOI (FIG. 6). Induction of CBF1 promoter was clearly detected in Ad-VEGF-infected HUVEC, compared to Ad-LacZ-infected cells in the MOI dependent manner. […] Thus VEGF induced Notch signaling activity.

Ad-VEGF-infected HUVEC = experiment: VEGF-induced budding (sprouting assay) of Ad-VEGF-HUVEC on collagen gel; assay type: cell-based, Human; conditions: for Inhibition of VEGF-induced HUVEC budding: co-infection with Ad-VEGF; for Inhibition of VEGF-induced HUVEC budding / Effect of fusion protein adenovirus alone on HUVEC morphology / bud formation: collagen gel; for Effect of fusion protein adenovirus alone on HUVEC morphology / bud formation: without Ad-VEGF
Protocol: For making collagen gels, an ice-cold solution of porcine type I collagen (Nitta gelatin, Tokyo, Japan) was mixed with 10×RPMI1640 medium and neutralization buffer at the ratio of 8:1:1. 400 μl aliquots of collagen gel were then added to 24-well plates and allowed to gel for at least 1 hour at 37° C. Following adenoviral infection (above), HUVEC was harvested and plated at 1.3×10^5 cells per well onto the top of the collagen gel in 24-well plates in 0.8 ml of EGM2 medium. HUVEC became nearly confluent 48 hours after plating. After seeding, medium was changed every 2 days for 1 week. Sprouting was observed and photographs taken after 8 days with an Olympus digital camera mounted to a microscope. For quantification of the number of sprouts, 5 fields per each well were randomly selected and sprouting was counted under microscopy in a blind manner by two investigators.
HUVEC (Human Umbilical Vein Endothelial cells) growth are dependent on VEGF (FIGS. 26A and 26B) and differentiation-related biological responses, such as sprouting, and can be evaluated at an early stage (7). At first, we examined whether adenovirally transduced VEGF induced both Notch and Notch ligand expression in HUVEC cultured with complete medium containing bFGF (FIG. 22A), as reported (5). […] Transduced-VEGF also activated Notch signaling in a dose-dependent manner by measuring CSL-luciferase reporter activity (FIG. 22B), which was transactivated with Notch signaling (8). Notch signaling was activated at a higher dosage of Ad-VEGF, compared to proliferation (FIG. 26A). […] Since Notch mutants lacking both transmembrane and cytoplasmic domains functioned as dominant negative inhibitors against Notch signaling (9), we made a Notch-based fusion protein or decoy (N1ECDFc) to inhibit Notch signaling (FIG. 22D). […] Then, we examined whether N1ECDFc inhibited activation of Notch signaling by transduced VEGF in HUVEC (FIG. 22G). […] Gerhardt et al. reported that VEGF controlled angiogenesis in the early postnatal retina by guiding filopodia extension at the tips of the vascular sprouts (10). During angiogenic sprouting, the formation of a specialized endothelial cell making filopodia projections among quiescent endothelial cells, might be one of the early events. Here we mean formation of a single endothelial cell making filopodia protrusions as budding. Budding of the primary endothelial cells is induced by cultivating them 3-dimensionally on either fibrin or collagen gel (11). In the case where Ad-VEGF-HUVEC were cultured on collagen gel with complete medium, transduced-HUVEC made filopodia extensions into the collagen gel for 5 days (FIG. 22H) and the number of buds was increased in a dose-dependent manner (FIG. 27A). […] Since both VEGF and Notch signaling induce HUVEC budding, we examined whether N1ECDFc inhibited VEGF-induced HUVEC budding (FIG. 22H-I).

MMP9 = experiment: Gelatin zymography of conditioned medium of transduced HUVEC, MMP-9; assay type: cell-based, Human; conditions: co-transduction with Ad-VEGF; fibrin gel
Protocol: (§1) FIGS. 24A-B show gelatin zymography analysis of MMP-9 and MMP-2 activity stimulated by VEGF in HUVEC. […] Transduced HUVEC were cultured on fibrin gel on the indicated day (i.e. D2, D4, D6, D8). Similar results were also obtained by using collagen gel, although induction of MMP-9 was stronger on fibrin gel than collagen gel (data not shown). […] HUVEC were transduced with Ad-N1ECDFc at the indicated doses and condition medium was collected from HUVEC cultured on collagen gel at day 4. FIGS. 24C-D show up-regulation of MMP-9 and MT1-MMP with Notch signaling. HUVEC were transduced with either Ad-LacZ or Ad-N1IC at 40 MOI. Numbers show PCR cycles. […] HUVEC were transduced with Ad-VEGF in the absence or presence of co-transduction of Ad-N1ECDFc at 40 MOI each. Ad-LacZ was co-transduced to make the same total amount of adenovirus at 80 MOI.
(§2) Requisition of MMPs for angiogenic sprouting has been established by synthetic MMP inhibitors (16). GM6001 is one broad inhibitor against MMPs including MMP2, MMP9 and MT1-MMP (18).

MMP2 = experiment: Gelatin zymography of conditioned medium of transduced HUVEC, MMP-2; assay type: cell-based, Human; conditions: co-transduction with Ad-VEGF; collagen gel, day 4
Protocol: as §1, §2

MT1-MMP mRNA = experiment: RT-PCR analysis of MT1-MMP expression in Ad-VEGF-HUVEC; assay type: cell-based, Human
Protocol: as §1, §2

[2] = tested on: VEGF-induced angiogenesis; experiment: Mouse Dorsa Air Sac (DAS) assay of in vivo angiogenesis; conditions: for VEGF-induced angiogenesis / neo-vascularization in vivo (summary statement): mouse
Source text: These Figures show the role of Notch signaling in VEGF-dependent in vivo angiogenesis. […] Representative photographs are shown. FIG. 25A show subcutaneous induced angiogenesis with 293/VEGF transfectant versus 293/VEGF also expressing Notch decoy (Notch-based fusion protein) N1ECDFc. […] MDA-MB-231 breast cancer cells produce VEGF (data not shown).

[3] = listed as Ad-Notch fusion protein
[4] = listed as Ad-Notch-based fusion protein

B1: N1ECDFc: Notch-based fusion protein or decoy: extracellular domain of Notch1 containing the EGF-repeats fused to the Fc portion of an antibody (protein)
chain: ARGLRCSQPSGTCLNGGRCEVANGTEACVCSGAFVGQRCQDPSPCLSTPCKNAGTCYVVDHGGIVDYACSCPLGFSGPLCLTPLANACLANPCRNGGTCDLLTLTEYKCRCPPGWSGKSCQQADPCASNPCANGGQCLPFESSYICGCPPGFHGPTCRQDVNECSQNPGLCRHGGTCHNEIGSYRCACRATHTGPHCELPYVPCSPSPCQNGGTCRPTGDTTHECACLPGFAGQNCEENVDDCPGNNCKNGGACVDGVNTYNCRCPPEWTGQYCTEDVDECQLMPNACQNAGTCHNSHGGYNCVCVNGWTGEDCSDNIDDCASAACFQGATCHDRVASFYCECPHGRTGLLCHLNDACISNPCNEGSNCDTNPVNGKAICTCPRGYTGPACSQDVDECALGANPCEHAGKCLNTLGSFECQCLQGYTGPRCEIDVNECISNPCQNDATCLDQIGEFQCICMPGYEGVYCEINTDECASSPCLHNGRCVDKINEFLCQCPKGFSGHLCQYDVDECASTPCKNGAKCLDGPNTYTCVCTEGYTGTHCEVDIDECDPDPCHIGLCKDGVATFTCLCQPGYTGHHCETNINECHSQPCRHGGTCQDRDNYYLCLCLKGTTGPNCEINLDDCASNPCDSGTCLDKIDGYECACEPGYTGSMCNVNIDECAGSPCHNGGTCEDGIAGFTCRCPEGYHDPTCLSEVNECNSNPCIHGACRDGLNGYKCDCAPGWSGTNCDINNNECESNPCVNGGTCKDMTSGYVCTCREGFSGPNCQTNINECASNPCLNQGTCIDDVAGYKCNCPLPYTGATCEVVLAPCATSPCKNSGVCKESEDYESFSCVCPTGWQGQTCEIDINECVKSPCRHGASCQNTNGSYRCLCQAGYTGRNCESDIDDCRPNPCHNGGSCTDGVNAAFCDCLPGFQGAFCEEDINECATNPCQNGANCTDCVDSYTCTCPTGFNGIHCENNTPDCTESSCFNGGTCVDGINSFTCLCPPGFTGSYCQYDVNECDSRPCLHGGTCQDSYGTYKCTCPQGYTGLNCQNLVRWCDSAPCKNGGKCWQTNTQYHCECRSGWTGFNCDVLSVSCEVAAQKRGIDVTLLCQHGGLCVDEEDKHYCHCQAGYTGSYCEDEVDECSPNPCQNGATCTDYLGGFSCKCVAGYHGSNCSEEINECLSQPCQNGGTCIDLTNTYKCSCPRGTQGVHCEINVDDCHPPLDPASRSPKCFNNGTCVDQVGGYTCTCPPGFVGERCEGDVNECLSNPCDPRGTQNCVQRVNDFHCECRAGHTGRRCESVINGCRGKPCRNGGVCAVASNTARGFICRCPARFEGATCENDARTCGSLRCLNGGTCISGPRSPTCLCLGSFTGPECQFPASSPCVGSNPCYNQGTCEPTSESPFYRCLCPAKFNGLLCHILDYSFTDLGPG
modifications: left off: a dimerising Fc or GST
notes: Notch-based fusion protein or decoy: extracellular domain of Notch1 containing the EGF-repeats fused to the Fc portion of an antibody
- Inhibition of VEGF-induced CBF1 promoter activity ([1]; 24 hr after reporter gene transfection): 60%
- Inhibition of VEGF-induced CBF1 promoter activity ([1]; 48 hr after reporter gene transfection): 90%
- Effect on VEGF-induced CBF1 promoter / CSL luciferase activity ([1]; listed as Ad-N1ECDFc): clearly decreased CSL luciferase activity induced by VEGF
- Effect on VEGF-induced CBF1 promoter / CSL luciferase activity [1, 3]: clearly reduced activation of CBF1 promoter activity
- Effect on VEGF-induced CBF1 promoter / CSL luciferase activity [1, 4]: clearly reduced activation of CBF1 promoter activity
- MOI dependence of the inhibitory activity on VEGF-induced CBF1 promoter activity ([1]; co-infection with Ad-VEGF in HUVEC): dependent on MOI
- Inhibition of VEGF-induced HUVEC budding (Ad-VEGF-infected HUVEC): clearly inhibited
- Inhibition of VEGF-induced HUVEC budding (Ad-VEGF-infected HUVEC; listed as Ad-N1ECDFc): clearly inhibited; also recorded: inhibition of budding
- Inhibition of VEGF-induced HUVEC budding (Ad-VEGF-infected HUVEC; listed as Notch fusion protein): clearly inhibited; also recorded: could inhibit VEGF-induced budding
- Cell number in VEGF-induced HUVEC budding assay (Ad-VEGF-infected HUVEC; co-transduction with Ad-VEGF): without affecting cell number
- Effect of fusion protein adenovirus alone on HUVEC morphology / bud formation (Ad-VEGF-infected HUVEC; listed as Ad-N1ECDFc): Neither Ad-LacZ or Ad-N1ECDFc-transduced HUVEC formed buds
- Effect of fusion protein adenovirus alone on HUVEC morphology / bud formation (Ad-VEGF-infected HUVEC; [3]): had less effect on morphology
- Effect of fusion protein adenovirus alone on HUVEC morphology / bud formation (Ad-VEGF-infected HUVEC; [4]): had less effect on morphology
- VEGF-stimulated induction and activation of MMP9 (gelatin zymography) (MMP9): inhibition of both induction and activation of MMP9
- VEGF-stimulated activation of MMP2 (gelatin zymography) (MMP2): inhibition
- Expression of MT1-MMP, fusion protein adenovirus alone (MT1-MMP mRNA; Ad-LacZ infected HUVEC, data not shown): did not affect expression of either MMP9 or MT1-MMP
- VEGF-induced up-regulation of MT1-MMP mRNA (MT1-MMP mRNA; co-transduction with Ad-VEGF, 40 MOI each): this induction was inhibited
- Vessel density, index of angiogenesis, MDA-MB-231 ([2]; Ad-N1ECDFc infected MDA-MB-231 cells): is inhibited
- Induction of VEGFR-1 expression in vivo ([2]; VEGF-induced skin neovascularization model): blocks
- Inhibition of MDA-MB-231-induced in vivo angiogenesis ([2]; adenovirus mediated expression, compared to adenovirus expressing LacZ): clearly inhibited
- Vessel density, index of angiogenesis, 293/VEGF ([2]; co-expression of 293/N1ECDFc): is inhibited
- Inhibition of 293/VEGF-induced in vivo angiogenesis ([2]; coexpression in 293/VEGF transfectant, compared to 293/VEGF alone): clearly inhibited
- VEGF-induced angiogenesis / neo-vascularization in vivo (summary statement) [2]: inhibition of VEGF-induced angiogenesis
- VEGF-induced angiogenesis / neo-vascularization in vivo (summary statement) ([2]; listed as Notch-based fusion protein): blocks VEGF-induced neo-vascularization
